Reference: the DeepSol protein solubility set

assay: soluble on expression in E. coli; label from the status in PepcDB or PDB records

| Sequence | soluble on expression in E. coli |
| --- | --- |
| MGSDKIHHHHHHMLSKICMKILTVLDSYPPDLNGGAYFTHRLAKFLQAKGHEVLVICPSRSLKQGYTSYEGVNLYGVRSWPALGYKNFRVCWPFFIKKGILKAITDFNPDVVHLQGKFFLGGICYRACRKKGIPLMATNHFMPENFFHYTHLPKYFEKWFHRTTWNIVIDMLNHVKIVTTPTHTAANLLKEVHIQKEIHVVSCGVDLQKFQPKQNANLIRQRYKIPDKPILLYAGRLDKEKNLSIAIKAFYKARQSIDAHFVLTGRGAELQRLKKLVQTLNLTEHVTFTGYLSDAEYPLVYSLANCFVNPGTAELQSIVALEAIASGLPLLAAKAMALPELVKEGVNGYLFDPNDVETLSCYMVKILSDRTFSEQMGRESRKLSQEHDIKRTIEQYETLYQSMVS | not soluble |
| MGSSHHHHHHSSGLVPRGSHMLEADPLLAQLKQQLHSQTPRAEGVVKATEKGFGFLEVDAQKSYFIPPPQMKKVMHGDRIIAVIHSEKERESAEPEELVEPFLTRFVGKVQGKNDRLAIVPDHPLLKDAIPCRAARGLNHEFKEGDWAVAEMRRHPLKGDRSFYAELTQYITFGDDHFVPWWVTLARHNLEKEAPDGVATEMLDEGLVREDLTALDFVTIDSASTEDMNDALFAKALPDDKLQLIVAIADPTAWIAEGSKLDKAAKIRAFTNYLPGFNIPMLPRELSDDLCSLRANEVRPVLACRMTLSADGTIEDNIEFFAATIESKAKLVYDQVSDWLENTGDWQPESEAIAEQVRLLAQICQRRGEWRHNHALVFKDRPDYRFILGEKGEVLDIVAEPRRIANRIVEEAMIAANICAARVLRDKLGFGIYNVHMGFDPANADALAALLKTHGLHVDAEEVLTLDGFCKLRRELDAQPTGFLDSRIRRFQSFAEISTEPGPHFGLGLEAYATWTSPIRKYGDMINHRLLKAVIKGETATRPQDEITVQMAERRRLNRMAERDVGDWLYARFLKDKAGTDTRFAAEIVDISRGGMRVRLVDNGAIAFIPAPFLHAVRDELVCSQENGTVQIKGETVYKVTDVIDVTIAEVRMETRSIIARPVA | soluble |
| MAHHHHHHMRSTPHGPPPHPRTSSVRQDAITYPYAYAAPGRQAPSAGYEHDDNTTAEAGPTRRCVPGRGNRAMPASNTGPYPSDVNRTLSYPEPAPARTAAPAVAIMQPSSPFEQDHTPVVYTVQNTTTDTHRHETEYGGVLTIRTTTVTRTITERLVASDEDDDSSENGEVYLDDARNEASVPSLHR | not soluble |
| VGDYGPFGFDPDEFDRVIREGSEGLRDAFERIGRFLSSSGAGTGWSAIFEDLSRRSRPAPETAGEAGDGVWAIYTVDADGGARVEQVYATELDALRANKDNTDPKRKVRFLPYGIAVSVLDDPVDEAQ | soluble |
| FNHPASAPYIQELATICQQLAQRLQRPVRLLEVGTRTGRAAESLLAQLNAGQIEYVGLEQSQEMLLSARQRLAPWPGARLSLWNADTLAAHAHSADIIWLNNALHRLLPEDPGLLATLQQLAVPGALLYVMEFRQLTPSALLSTLLLTNGQPEALLHNSADWAALFSAAGFNCQH | not soluble |
| MPEPHPAPQPYTVAALYQFRALPDPAALRAELLALGERLELCGTLIVADEGINGTVAGSAAAIAELHAFLLASGFDRLEYKESQASEKPFKRYKVRLKKEIVTLGVPVAPREQVGTYLDPQAWNDLLADPEVIVVDTRNRYEVKAGTFQGAVDPEIDSFREFPAWVDEHLAGAEGKKIAMFCTGGIRCEKSTSLLLQKGFQDVYHLKGGILKYLEDVPQAQSRWDGECFVFDGRVTVGHGLQEGDAVMCHSCGWPLTAQERAHPQFEEGVSCEHCFDETTDVQKAAFRERQRMYEAGHLTLEHHHHHH | not soluble |
| MGSDKIHHHHHHMIARKLADLGVDVIEAGFPASSEGEFIATRKIFEEIGDQVEVIGLSRSNKNDIDKTISTGISSIHLFIATSELHMKYKLKMTKEEVLNKIYESVKYAKDHGMIVEFSPEDATRTEEDFLFTAIRTAIEAGADRINIPDTVGTMHPFKYYDMIKKIVNFVGERIIVSVHCHNDFGLATANSLAGVYAGARQAHVTVNGIGERAGNASLEEVVMGIKKLLNYETNVKTWKLYEVSRFVAEMTGVPVPYFKAIVGDNAFGHESGIHVHGVIENPFTYEPISPEEVGNFRRLALGKHSGIHGLRKLLEEQGIYLSDDKLKIVLAEIKKLAESGNKVTVEDAKNIALKLMNS | not soluble |
| MSLGSVKIVSDLPLQGANRAQTISMVNAIRLAIDQRGGKVAGLKIEYESLDDATAQSGQWDEGKCAENAQQAAQDEEIVGWIGPFNSGCAAVEIPILNEAGLVMISPANTYVGLTKEGGEPDEPDKYYPTGQRNYTRVIPADDKQGRLAAVLMREEGVRTVFILDDRETYGKGLADQVQKSAEEFGIEVVGRQGIDGSASNYRGLMNRVREANPDAIYFGGIIENNAGQLVRDKVGAGMPNDEVLFIGPDGIFVDTFIEQAGDAAEGAYVTFGGIPPERLGERGQRFIEEYNAKYPDDPIQAYTAYAYEAANVLLDAIERAQKADGEVNRENVLREVFATENYKGVLGTWSFDENGDTTLTKLSVQRVQNGEFKLDRVLDVSREGHHHHHH | soluble |
| MDFWPEFMATSWGREFVAGGFGGVAGIISGYPLDTLRIRQQQSSKSGSAFSILRRMLAIEGPSSLYRGMAAPLASVTFQNAMVFQIYAIFSRSFDSSVPLVEPPSYRGVALGGVATGAVQSLLLTPVELIKIRLQLQQTKSGPITLAKSILRRQGLQGLYRGLTITVLRDAPAHGLYFWTYEYVRERLHPGCRKTGQENLRTMLVAGGLAGVASWVACYPLDVVKTRLQQGHGAYEGIADCFRKSVKQEGYTVLWRGLGTAVARAFVVNGAIFAAYEVALRCLFNQSPSPDIVTGD | soluble |
| PNRRADDNATIRVTNLSEDTRETDLQELFRPFGSISRIYLAKDKTTGQSKGFAFISFHRREDAARAIAGVSGFGYDHLILNVEWAKPSTN | soluble |
| MNQVEMTEFPVGKPQEALYGVASTPDGALWFTLAKGNAIGRLSPDGAVSRFPLPHADGQPTTITCGPDGRPWFTLSSANAIGRLAPDGALRMFELPRPASRPFGIAGGHDGCLWFAEMAGDRIGRITIDGDIEEYDLPVKGGYPSCMAAGRDGLMWFTLNQAGAVGSISATAAPRIFPLGAADAAPVGIASDAQGALWIAQAGNGAIARFDAGGRITEFPLHSRAARPHAIAADAAGNLWFTEWGANRIGRISEAGDLAGYELAAPGSEPHGIAIDPHGCVWAALETGRLVRLQASPRDLEHHHHHH | not soluble |
| MSMSVILRKSLIEVLNKKNEKKKDVAREISTSQQSLSDWTSQNNVKPVTIENALRLSDHFRDSTFTMEVIHQFFGMFKTCDGDVYRKDPSSLDRLQKIESNERKALKHDIERIVLKNPEYLSEQDISKIVAYANEYLDEVIVEITLLSSLCDLASIDIRYLSEQRFPYWEQLGYMRKENTNGTRSY | not soluble |
| EVYALEESRDVYLSDLDWLNATHGDDTKSKIVQKNHPFTPGNNNQSTKISLKMEDGSISEFEKGLGTIAGSPSTITYDISGAGVTKFFSYLGIDRSANPINEQYAKVDKIEVVVDGKVIYSTINQFPNGLTYETPAIKVDLNIPENAKRLQLKSYAGEKTWGDEVVYADAKFTAKGDFVN | soluble |
| MGSDKIHHHHHHMKTQYFSDVDETVITTTLSNGLRLQVVPRPAYHKSYAIMTTDYGSIDTQFAPDGKQMVTYPAGIAHFLEHKLFEKEDHDAFDLFGETGASANAFTSATKTSFLFSTTTQLTKNLQILLDFVQTPFFSKASVAKEQGIIGSEIQMYQDDPGWRGYAGLLENLFPNHPAHVDVAGTVASIAQITPEMLYTIHRVFYQPSNMTLIVVGNIDADAIMAFVAANQAAKQFPAPQAIVRGVHADLQTDDIVPYRQLEMPISRPKTLVGIKGQVAIPMTAEGWRYQLTIRLLLEVLFGDSSQLYQDWYDRGLIDDSFDFDFTNQRSFSYGLVGGDTDDPHALSDAIKHVLLNAATQPDLTRDRVALIKRASLGKYYAGLNGLNGVANQLSALSFGQASLFDFPEILSSITLADLQAMIDQVFQAKALTVLDMIPEAD | not soluble |
| MSLIRSMTGFGRASNDNGRLGFNVEIKSVNHRYFDLNIKLPRNLISLEEKIRKEVGNKIKRGKVDIFITQNVYDSSTTNVNLNKGLAYNYCECLKQIRDDFNVLDDISVSLISKFPDVITVTQNEEDLDEISSLLLKPINEAVDTMLSMREKEGARLKEDIEGKLTNIEELLVNVEKRAPYTVENYRNKLEERIKDLLVDNQVDEAKLAMEVTIFADKSCIDEEIVRLKSHISQFKSTLSENEPVGRKLDFIVQEMNREANTINSKSNDIDIVHCVLDIKNEIEKIREQIQNIEEGHHHHHH | soluble |
| MGSDKIHHHHHHMYRIRVFGDPVLRKRAKPVTKFDENLKKTIERMIETMYHYDGVGLAAPQVGISQRFFVMDVGNGPVAVINPEILEIDPETEVAEEGCLSFPEIFVEIERSKRIKVKYQNTRGEYVEEELEGYAARVFQHEFDHLNGVLIIDRISPAKRLLLRKKLMDIARTVKR | soluble |
| MQEKQHIHIGEIIQRLSGRKLPQPLIRLLERLIHQDEINDILDRYGHLEGVDFMTALVGYFHVDIDWNGADRLPSDKRCLFVSNHPLGGLDGICLSHLIGSHYDSDVRYIVNDILFHLRPLRKIFVPVNTRGRQKRESIDRLQEALESDLPVITFPAGFCSRLIEGKVQDTPWKKSFVRQAYASKRDIVPLFFDGLNSKRFYRIERLRQLLGLKFNIGMALLPDEMFRSKGRHFRVFAGRPIPWQSLASAPRDTAEQALHIRSLVYDLSPSALKK | not soluble |
| MGSDKIHHHHHHMDYSSKDIKSIISEILDKKKAKGGVKSIYVVGCGGSLGALYPAKTFMEKECTSIKSAWINSSEFIHSTPKDFGVNSIICLACHKGNTPETIAAAKLGKEMGATVIILTWLKESEIIEFGDYIIRYTFDASPDHLKGDIDYSGEKTICALLVAVELLAQTEGYENYNKFYEGTKMISNIIKNARNHVAERAVKFAEKYKDDSVIYTMGSGASYGAAYMESICIFMEMQWLNSSSIHTGEYFHGPFEITDANRPFMIQISEGSTRDLDERALKFLNTYAKRIEVLDAKELGLSTIDASVVDYFNHSLFNNVYPIYNHELATKREHPLPTRRYMWKVEY | not soluble |
| MGHHHHHHSHMKALLSIEMDMQVPFHDVDSMGITWHGNYLRYFEVARCKLLDELGYNYRQMRASNYAWPIIDVQIKYVKPSTFEQHITVRAELVEWENRLKINYQIRDTATGERITKGYTIQAAVDMTSQEMCFVTPEVFRSKIAPLLAKVDNE | soluble |
| GPALVKQSHPKNPNDKHRSKKCKDPKPRVKKLKYHQYIPPDQKGEKNEPQMDSNYARLLQQQQLFLQLQILSQQKQHYNYQTILPAPFKPLNDKNSNSGNSALNNATPNTPRQNTSTPVRKPGPLPSSLDDLKVSELKTELKLRGLPVSGTKPDLIERLKPYQEVNSSGLAAGGIVAVSSSAIVTSNPEVTVALPVTTLHNTVTSSVSTLKAELPPTGTSNATRVENVHSPLPISPSPSEQSSLSTDDTNMADTFTEIMTMMSPSQFLSSSPLRMTNNEDSLSPTSSTLSNLELDAAEKDRKLQEKEKQIEELKRKLEQEQKLVEVLKMQLEVEKRGQQQRPLEAQPSAPGHSVKSDQKHGSLGSSIKDEASLPDCSSSRQPIPVASHAVGQPVSTGGQTLVAKKAVVIKQEVPVGQAEQQSVVSQFYVSSQGQPPPAVVAQPQALLTTQTAQLLLPVSIQGSSVTSVQLPVGSLKLQTSPQAGMQTQPQIATAAQIPTAALASGLAPTVPQTQDTFPQHVLSQPQQVRKVFTNSASSNTVLPYQRHPAPAVQQPFINKASNSVLQSRNAPLPSLQNGPNTPNKPSSPPPPQQFVVQHSLFGSPVAKTKDPPRYEEAIKQTRSTQAPLPEISNAHSQQMDDLFDILIKSGEISLPIKEEPSPISKMRPVTASITTMPVNTVVSRPPPQVQMAPPVSLEPMGSLSASLENQLEAFLDGTLPSANEIPPLQSSSEDREPFSLIEDLQNDLLSHSGMLDHSHSPMETSETQFAAGTPCLSLDLSDSNLDNMEWLDITMPNSSSGLTPLSTTAPSMFSADFLDPQDLPLPWD | soluble |
